39 variants from the RNAGym collection of RNA variant scans (doi:10.7554/elife.80360) can be followed below.

First the molecules themselves.
B1: CPEB3 Ribozyme (parent)
chain: GGGGGCCACAGCAGAAGCGUUCACGUCGCGGCCCCUGUCAGAUUCUGGUGAAUCUGCGAAUUCUGCUGU

The variants in this data set derive from B1. The data set is described as follows: self-cleavage, relative activity (ratio to wild type); higher = more cleavage; co-transcriptional.
As for GGGGGCCACAGCAGAAGCGUUUACGUCGCGGCCCCUGUCAGACUCUGGUGAAUCUGCGAAUUCUGCUGU [C22U U43C], the self-cleavage was 0.295.

Consider GGGGGCCACAGCAGAAGCGUUCCCGUCGCGGCCCAUGUCAGAUUCUGGUGAAUCUGCGAAUUCUGCUGU [A23C C35A], for which the self-cleavage was 0.26.

As to GGGGGCCACAGCAGAAGCGUUCCCGUCGCGGCCCUUGUCAGAUUCUGGUGAAUCUGCGAAUUCUGCUGU [A23C C35U], the self-cleavage was found to be 0.844.

As for GGGGGCCACAGCAGAAGCGUUUACGUCGCGGCCCCUGUCAGAUUCUGGUGAAUCUGUGAAUUCUGCUGU [C22U C57U], the self-cleavage was determined as 0.192.

With GGGGGCCACAGCAGAAGCGUUUACGUCGCGGCCCCUGUCAGAUUCUGGUGAAUCUGGGAAUUCUGCUGU [C22U C57G], the self-cleavage worked out at 0.144.

For the variant GGGGGCCACAGCAGAAGCGUUCCCGUCGCGGCCCCUGUCAGAUUCUGGUGAAUCUGCGAAUUUUGCUGU [A23C C63U], the self-cleavage is 0.969.

Regarding GGGGGCCACAGCAGAAGCGUUCCCGUCGCGGCCCCUGUCAGAUACUGGUGAAUCUGCGAAUUCUGCUGU [A23C U44A], the self-cleavage was 0.936.

Turning to GGGGGCCACAGCAGAAGCGUUCCCGUCGCGGCCCCUGUCAGAUGCUGGUGAAUCUGCGAAUUCUGCUGU [A23C U44G], the self-cleavage came out at 0.946.

On to GGGGGCCACAGCAGAAGCGUUUACGUCGCGGCCCCUGUCAGAUUCUGGUGAAUCUGCGGAUUCUGCUGU [C22U A59G], for which the self-cleavage was determined as 0.324.

Turning to GGGGGCCACAGCAGAAGCGUUCCCGUCGCGGCCCCUGUCAGAUUCUGGGGAAUCUGCGAAUUCUGCUGU [A23C U49G], the self-cleavage was 0.916.

Take GGGGGCCACAGCAGAAGCGUUUACGUCGCGGCCCCUGUCAGAUUCUGGUGAAUCUGCGAAUUCUGCUUU [C22U G68U]: the self-cleavage stood at 0.51.

Consider GGGGGCCACAGCAGAAGCGUUUACGUCGCGGCCCCUGUCAGAUUCUGGUGUAUCUGCGAAUUCUGCUGU [C22U A51U], for which the self-cleavage was found to be 0.295.

For GGGGGCCACAGCAGAAGCGUUCCCGUCGGGGCCCCUGUCAGAUUCUGGUGAAUCUGCGAAUUCUGCUGU [A23C C29G], the self-cleavage stood at 0.485.

Turning to GGGGGCCACAGCAGAAGCGUUUACGUCGAGGCCCCUGUCAGAUUCUGGUGAAUCUGCGAAUUCUGCUGU [C22U C29A], the self-cleavage stood at 0.172.

In the case of GGGGGCCACAGCAGAAGCGUUUACGUCGCGGCCCCUGUCAGAUUCUGGUGAAUCUGCGAAUCCUGCUGU [C22U U62C], the self-cleavage was found to be 0.171.

In the case of GGGGGCCACAGCAGAAGCGUUCCCGUCGCUGCCCCUGUCAGAUUCUGGUGAAUCUGCGAAUUCUGCUGU [A23C G30U], the self-cleavage came to 0.317.

Regarding GGGGGCCACAGCAGAAGCGUUCCCGUCGCGGCCCCUGUCAGAUUCUGGUGAAUCUGCGAAUUCUGGUGU [A23C C66G], the self-cleavage was determined as 0.81.

Turning to GGGGGCCACAGCAGAAGCGUUUAAGUCGCGGCCCCUGUCAGAUUCUGGUGAAUCUGCGAAUUCUGCUGU [C22U C24A], the self-cleavage was found to be 0.179.

Regarding GGGGGCCACAGCAGAAGCGUUCCCGUCGCGGCCCCUGUCAGAUUCUGGUGAAUCUGCGUAUUCUGCUGU [A23C A59U], the self-cleavage came to 0.67.

As for GGGGGCCACAGCAGAAGCGUUCCCCUCGCGGCCCCUGUCAGAUUCUGGUGAAUCUGCGAAUUCUGCUGU [A23C G25C], the self-cleavage worked out at 0.151.

Take GGGGGCCACAGCAGAAGCGUUCCCUUCGCGGCCCCUGUCAGAUUCUGGUGAAUCUGCGAAUUCUGCUGU [A23C G25U]: the self-cleavage came to 0.176.

For GGGGGCCACAGCAGAAGCGUUUACGUCGCGGCCCCUGUCAGAUUCUGGUGAAUCUGCGAAAUCUGCUGU [C22U U61A], the self-cleavage was determined as 0.18.

Take GGGGGCCACAGCAGAAGCGUUCCCGUCGCGACCCCUGUCAGAUUCUGGUGAAUCUGCGAAUUCUGCUGU [A23C G31A]: the self-cleavage is 0.86.

In the case of GGGGGCCACAGCAGAAGCGUUCCCGUCGCGGCACCUGUCAGAUUCUGGUGAAUCUGCGAAUUCUGCUGU [A23C C33A], the self-cleavage turned out to be 0.746.

Consider GGGGGCCACAGCAGAAGCGUUUACGUCGCGGGCCCUGUCAGAUUCUGGUGAAUCUGCGAAUUCUGCUGU [C22U C32G], for which the self-cleavage was 0.133.

On to GGGGGCCACAGCAGAAGCGUUCCCGUCGCGGCCCCUGUCAGAUUCUGGUGAAUCAGCGAAUUCUGCUGU [A23C U55A], for which the self-cleavage came to 0.866.

In the case of GGGGGCCACAGCAGAAGCGUUCCCGUCGCGGCCCCUGUCUGAUUCUGGUGAAUCUGCGAAUUCUGCUGU [A23C A40U], the self-cleavage was found to be 0.79.

For GGGGGCCACAGCAGAAGCGUUCCCGUCGCGGCCCCUGUCCGAUUCUGGUGAAUCUGCGAAUUCUGCUGU [A23C A40C], the self-cleavage was 0.544.

As for GGGGGCCACAGCAGAAGCGUUUACGUCGCGGCCCCUGUCAGAUUCUGAUGAAUCUGCGAAUUCUGCUGU [C22U G48A], the self-cleavage is 0.379.

Take GGGGGCCACAGCAGAAGCGUUUACGUCGCAGCCCCUGUCAGAUUCUGGUGAAUCUGCGAAUUCUGCUGU [C22U G30A]: the self-cleavage came to 0.164.

GGGGGCCACAGCAGAAGCGUUUACGUCGCUGCCCCUGUCAGAUUCUGGUGAAUCUGCGAAUUCUGCUGU [C22U G30U]: the self-cleavage is 0.221.

As to GGGGGCCACAGCAGAAGCGUUUACGUCCCGGCCCCUGUCAGAUUCUGGUGAAUCUGCGAAUUCUGCUGU [C22U G28C], the self-cleavage was 0.126.

As to GGGGGCCACAGCAGAAGCGUUCCCGUCGCGGCCCCUUUCAGAUUCUGGUGAAUCUGCGAAUUCUGCUGU [A23C G37U], the self-cleavage is 0.299.

As to GGGGGCCACAGCAGAAGCGUUCCCGUCGCGGCCCCAGUCAGAUUCUGGUGAAUCUGCGAAUUCUGCUGU [A23C U36A], the self-cleavage stood at 0.335.

For GGGGGCCACAGCAGAAGCGUUCCCGUCGCGGCCCCGGUCAGAUUCUGGUGAAUCUGCGAAUUCUGCUGU [A23C U36G], the self-cleavage came out at 0.326.

As for GGGGGCCACAGCAGAAGCGUUUACGUCGCGGCCCCUGUCAGAUUCUGGUGAAUCUGCGAAUUCUGUUGU [C22U C66U], the self-cleavage stood at 0.33.

Consider GGGGGCCACAGCAGAAGCGUUCCCGUCGCGGCCCCUGUCAGAUUCUAGUGAAUCUGCGAAUUCUGCUGU [A23C G47A], for which the self-cleavage was found to be 0.924.

As for GGGGGCCACAGCAGAAGCGUUCCCGUCGCGGCCCCUGUCAGAUUCUUGUGAAUCUGCGAAUUCUGCUGU [A23C G47U], the self-cleavage came out at 0.993.

For the variant GGGGGCCACAGCAGAAGCGUUCCCGUCGCGGCCCCUGUCAGAUUCUCGUGAAUCUGCGAAUUCUGCUGU [A23C G47C], the self-cleavage stood at 0.961.
